In the supplement of paper PMC9170038:

System: MS2 coat protein
Assay: apparent KD of MS2 coat protein; higher = weaker reporter binding
Settings: Eterna round: R107
Outline: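 SNAP-549-labelled MS2 coat protein was titrated onto designed RNA switches that had been transcribed on-chip from Illumina sequencing clusters. Amounts doubled from 0.7 or 1.5 nM to 3 µM in 100 mM Tris-HCl pH 7.5, 80 mM KCl, 4 mM MgCl2, with constant ligand or without. Apparent KD is the median per design of normalised cluster binding-curve fits.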

[1] = input ligand: theophylline 20 uM
[2] = input ligand: theophylline 2 mM
[3] = input ligand: tryptophan 2.4 mM

Sequence | apparent KD of MS2 coat protein (input ligand: arginine 13.2 mM) | apparent KD of MS2 coat protein (input ligand: none) | apparent KD of MS2 coat protein [1] | apparent KD of MS2 coat protein [2] | apparent KD of MS2 coat protein [3]
AGGACGGUCGGAAGGAGCGGUACAUGAGGAUCACCCAUGUACUUCUGGGCAUCCGUAGAGUGCCAGGUAGGUCGCCGAUUGCGGG [XArg-B10] | 16.4 nM | 9.36 nM | 17.5 nM | 10.6 nM | 12.9 nM
AGGGAAUGAAUAGAAUGAGAUGACACAGAAGGAGCGCCGAUUAAGGCAGGUAGGUCGCUGACAACAUGAGGAUCACCCAUGUUAA [#11 Same State - Arginine A] | 8.73 nM | 17 nM | 14.1 nM | 17.5 nM | 20.6 nM
AGUAACAUGAGGAUCACCCAUGUAUGAGAAGGAGCGUGUUUUAACACAGGUAGGUCGCUCAAUAUUAAUUUAUUAGAUACAUUUA [JR_SSArginiA_Sub006] | 18.9 nM | 27 nM | 45.1 nM | 36.8 nM | 34.3 nM
AGUACAUGAGGAUCACCCAUGUGCCGGUAACGAGGACCGGUACGGCCGCCACUCGAUGUACCUCAAUUUGAUUGAGAUAAGAAAA [Anorbian] | 34.2 nM | – | 57.6 nM | 47.4 nM | –
AGUAUCAGUGGAAGGAGCGUCGCGAAUGCCACAUGAGGAUCACCCAUGUCGCCUUGAGCGCGACAGGUAGGUCGCCACGGUAGGC [SS-ArgB3] | 53.2 nM | 208 nM | 174 nM | 338 nM | 140 nM
AGUAUUGGAAACAGUACUAGUGAUCCGGUCCGAGGACCGGUACGGCCGCCACUCGAUUUAAAUAAACAUGAGGAUCACCCAUGUA [Ex Tryptophan A 14] | 15.8 nM | – | 17.2 nM | 16.5 nM | –
AGUCACAUGAGGAUCACCCAUGUGCCAGAACGAGGACCGGUACGGCCGCCACUCGAGGCGUCCGUCGACAAUAAUGUGAACUGCA [theeternabot_sameState_MS2_Trp_A_48] | 11.1 nM | – | 16.7 nM | 11.6 nM | –
AGUCUGGACUCGGCCGCCACUCGUGAUGCUUUGGCACAUGAGGAUCACCCAUGUGGUCGGCCUUAGAGGACCGGGAGUACCAGUC [Ariaredle] | 52.3 nM | – | 84.9 nM | 63.5 nM | –
AGUCUUAUAGGAAGGAGCGCAAUCAUCACAUGAGGAUCACCCAUGUCAAGGUGAGAGUCAUUGCAGGUAGGUCGCCUAACUAAGA [Same State - Arginine B (Freestyle 9)] | 150 nM | 241 nM | 173 nM | 251 nM | 213 nM
AGUGUUAUAACUGAUACCAGACCUUUGCUUAUACAUGAGGAUCACCCAUGUAAAAUGGCGGUCCCUUGGCAGCAGAGAAUACGCA [#09 Same State - Theophylline B] | 52.2 nM | – | 57 nM | – | 60.1 nM
AGUUGACGAAAGUCAGCAACAUGAUCCGAAGGAGCGGGCGAAAGCCCAGGUAGGUCGCGGACAUGAGGAUCACCCAUGUCUCCUU [MAT - Exclusion Arginine A - Mod of Eli - D12] | 37.8 nM | 73.4 nM | 78.8 nM | 92.6 nM | 70.7 nM
AUAACAUGAGGAUCACCCAUGUAACCUGAAGGAGCGGACGAAAGUCCAGGUAGGUCGCAGGACUCCUUCAACAUGGGAGAGGGAG [SSArg-A #27 NuPack the Brourd] | 120 nM | 99 nM | 131 nM | 152 nM | 124 nM
AUAACAUGAGGAUCACCCAUGUAAGCAGAUACCAGCUAGGAAACUAGCCCUUGGCAGCUGCAUAGUGAUCCAUAUAUCUGCUAAU [(M1)-(M2)-(T1)-(T2)-(M)'-(T)'_Design8] | 40.6 nM | – | 80.5 nM | – | 59.2 nM
AUAACUGCCAAGGAUCAUGGGUGAGCAGAUACCAGCUAGGAAACUAGCCCUUGGCAGCUGCAACAUGAGGAUCACCCAUGUAAUA [(T)'-(M)'-(T1)-(T2)-(M1)-(M2)_Design8] | 38.5 nM | 147 nM | 83.8 nM | 119 nM | 90.4 nM
AUAAGUAAGUUUUCGUGUUUUAUUACAGAUACCAGACUAUACGUUGUCCCUUGGCAGCUGGAUUACAUGAGGAUCACCCAUGUUG [#25 Exclusion-TheophyllineA] | 19 nM | – | 33.9 nM | – | 23.9 nM
AUAAGUGUAAGAUACCGCACGCUGGAGGAAGGAGCGCGGAUUAACGCAGGUAGGUCGCCUCGUACAUGAGGAUCACCCAUGUGGC [#14 Same State - Arginine A] | 41.7 nM | 22.5 nM | 41.5 nM | 38.7 nM | 35.2 nM
AUACAUGAGGAUCACCCAUGUAUAGUCGAUACCAGCUCAAGGAAGAGCCCUUGGCAGCGACACUGGUAUCCAUGGGUGAUACCAG [(Ms2)-(Theo)-(T)'-(M)'-(T)''_Design4] | 17.8 nM | – | 36.4 nM | – | 19.3 nM
AUACAUGAGGAUCACCCAUGUCACACAGAAGGAGCGGCUGUAGAGCCAGGUAGGUCGCUGUACUCAAAAUACUUCAUACUCAUGU [JR_Nu_ExcArginiA_Sub033] | 34.9 nM | 33 nM | 34.7 nM | 37 nM | 27.5 nM
